# Data: patent US6709814B1, “Peptides causing formation of compact structures” (Rigel Pharmaceuticals, Inc., priority 1998, dated 2004)
# Bridge positions count the residues as written; N and C are the ends. Square brackets hold non-standard residues; d marks the D form. Ends that are not written are not given here. Peptide text beside a SMILES is read from it. pGlu = O=C1CC[C@@H](C(=O)O)N1
# Tests used:
# [1] = Observation of peptide dimers by electrospray MS / LC-MS under harsh conditions; type: binding; conditions: electrospray ion trap, infusion at pH 6.4 or C18 elution at ~pH 2.5 in acetonitrile
# From the text: The peptide also forms dimers (also detected by mass spectrometry) when eluted off a C18 reversed phase column at pH ˜2.5 in ca. 25% acetonitrile (FIG. 3B).
# LC/MS examination of the crude synthesis products from an all-single coupled fmoc synthesis of EFLIVKS-amide, for shorter sequences which can dimerize after electrospray ionization is shown in FIG. 4. HPLC elution was with a gradient of 99.9% water-0.1% TFA to 99.9% acetonitrile-0.1% TFA. Dimers of the following truncated sequences were detected by mass spectrometry with the percent acetonitrile in parentheses, all at ˜pH 2.5: peak 1, […] (23.5%), monomer m/z=705.3, dimer m/z=1409.3; peak 4: EFLIVKS-amide (25%), monomer m/z=834.4, dimer m/z=1667.3; and peak 5, EFLIVK-amide (32%), monomer m/z=747.4, dimer m/z=1493.1.
# [2] = biological target: T1, porcine pancreatic elastase (Sus scrofa, UniProt P00772); conditions: Leatherbarrow and Salacinski; read-out: reported apparent inhibition constant (Ki) for elastase; cited from earlier work
# T1 construct: purchased Sigma Chemical Co., St. Louis, Mo
# [3] = biological target: T1, porcine pancreatic elastase; experiment: Inhibition of porcine pancreatic elastase (succinyl-ala-ala-ala-p-nitroanilide cleavage); type: biochemical; conditions: pH 7.88, 25 C
# Experimental: Inhibition by different peptide constructs was followed by preincubation of 10 μM peptide with elastase for 1-1.5 min. followed by addition of the substrate. Percent inhibition was calculated as [1−{assay slope(peptide+elastase)/assay slope(elastase alone)}]×100%.
# [4] = cited from earlier work; for dimer formation of HA fragments: compared with HA; for concentration at which dimers form / do not dissociate: aqueous solution, physiological conditions
# [5] = Solubility of peptide constructs; type: physicochemical
# [6] = biological target: the molecule itself; experiment: self-dimerization, electrospray mass spectrometry, relative dimer ion current against peptide concentration, pH 5.0
# [7] = biological target: the molecule itself; experiment: self-dimerization, electrospray mass spectrometry, alanine scan
# [8] = biological target: porcine pancreatic elastase (porcine, UniProt P00772 27-266); experiment: cell-based or functional assay
# [9] = biological target: the molecule itself; experiment: LC/MS, C18 reversed phase elution at ~pH 2.5, electrospray
# T1 sequence (P00772 27-266): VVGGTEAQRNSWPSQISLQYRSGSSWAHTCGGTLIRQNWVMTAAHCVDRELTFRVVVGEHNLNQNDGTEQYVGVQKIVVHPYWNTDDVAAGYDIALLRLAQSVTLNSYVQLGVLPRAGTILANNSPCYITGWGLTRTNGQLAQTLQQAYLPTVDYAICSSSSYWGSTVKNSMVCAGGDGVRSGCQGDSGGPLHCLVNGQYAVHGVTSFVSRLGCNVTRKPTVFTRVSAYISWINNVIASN
# porcine pancreatic elastase (porcine, UniProt P00772 27-266), sequence (P00772 27-266 limits assumed): as the sequence (P00772 27-266) above
molecule,measurement,setting,value
VSIKFEL [peptide designed to form a short beta sheet],dimer detected by mass spectrometry,[1],dimeric form of the peptide
CC[C@H](C)[C@@H]1NC(=O)[C@H](CCCNC(=N)N)NC(=O)[C@H](Cc2ccc(O)cc2)NC(=O)[C@H](CCC(=O)O)NC(=O)[C@H](CCSC)NC(=O)[C@H]([C@@H](C)O)NC(=O)[C@H](C(C)C)NC(=O)[C@H]([C@@H](C)CC)NC(=O)[C@H]([C@@H](C)O)NC(=O)CNC(=O)[C@@H](N)CSSC[C@@H](C(=O)O)NC(=O)[C@H](Cc2ccccc2)NC(=O)[C@H](CO)NC(=O)[C@H](CCCNC(=N)N)NC(=O)[C@H]([C@@H](C)O)NC(=O)[C@H](CCCNC(=N)N)NC(=O)[C@H](CC(=O)O)NC1=O [cyclic[CGTIVTMEYRIDRTRSFC]] (H-CGTIVTMEYRIDRTRSFC-OH; disulfide 1-18),Ki,[2],0.00039 µM
same,inhibition of porcine pancreatic elastase,"[3]; 500 nM peptide, 100 μM succ-ala-ala-ala-p-nitroanilide",6.2%
EFLIVK-amide (EFLIVK-NH2),dimer detected by mass spectrometry,[1],Dimers
pVILF,dimer formation of HA fragments,[4],did not lead to dimer formation
LIVKS-amide,dimer detected by mass spectrometry,[1],Dimers
EFLIVKSSTKSIPPQSEFLIVKS [EFLIVKS-STKSIPPQS-EFLIVKS],solubility,[5],quite soluble at low pH
pSKVILF,dimer formation of HA fragments,[4],dimerized more efficiently
EFLIVKS,dimer detected by mass spectrometry,[1]; listed as EFLIVKS-amide,self-associate to form dimers
[pGlu]PPGGSK,dimer formation of HA fragments,[4],did not lead to dimer formation
[pGlu]PPGGSKVILF [HA],concentration at which dimers form / do not dissociate,[4],≤ 10^−13 M
O=S(=O)(F)Cc1ccccc1 [PMSF],inhibition of porcine pancreatic elastase,[3]; 2 mM PMSF,100%
SKVILFE,concentration at which dimers form / do not dissociate,[4],~10^−13 M
EFLIAKS (Alanine scan analog of EFLIVKS (V5A)),Kd,[6],82 µM
same,fold weakening of self-binding against EFLIVKS,[7],10 fold
EFLIVKA (Alanine scan analog of EFLIVKS (S7A)),Kd,[6],9.9 µM
EFLIVAS (Alanine scan analog of EFLIVKS (K6A)),Kd,[6],> 50 µM
same,fold weakening of self-binding against EFLIVKS,[7],6 fold
SKVILFE-NH2 (also called SKVILFE-amide; test peptide SKVILFE),Kd,[6],12 µM
EFLAVKS (Alanine scan analog of EFLIVKS (I4A)),Kd,[6],42 µM
same,fold weakening of self-binding against EFLIVKS,[7],5.4 fold
EALIVKS (Alanine scan analog of EFLIVKS (F2A)),Kd,[6],42 µM
same,fold weakening of self-binding against EFLIVKS,[7],5.4 fold
CGTIVTMEYRIDRTRSFC (disulfide 1-18) [cyclic[CGTIVTMEYRIDRTRSFC]],inhibition (% inhibition of elastase cleavage of succ-ala-ala-ala-p-nitroanilide),[8],6.2%
EFLIVK-NH2 (Truncated by-product of the EFLIVKS-amide synthesis; also called peak 5) [EFLIVK-amide],binding result,[9],binds
EFLIVKS-NH2 (also called EFLIVKS-amide; dimerizer),Kd,[6],7.8 µM
KFLIVKS (Analog of EFLIVKS with the N-terminal glu replaced by lys),Kd,[6],6.8 µM
VSIKFEL (Peptide designed to form a short beta sheet),Kd,[6],13 µM
AFLIVKS (Alanine scan analog of EFLIVKS (E1A)),Kd,[6],12 µM
EFAIVKS (Alanine scan analog of EFLIVKS (L3A)),Kd,[6],76 µM
same,fold weakening of self-binding against EFLIVKS,[7],9.7 fold
